T1: recombinant syndecan-1
T1 sequence (P18827 whole entry, species assumed, looked up): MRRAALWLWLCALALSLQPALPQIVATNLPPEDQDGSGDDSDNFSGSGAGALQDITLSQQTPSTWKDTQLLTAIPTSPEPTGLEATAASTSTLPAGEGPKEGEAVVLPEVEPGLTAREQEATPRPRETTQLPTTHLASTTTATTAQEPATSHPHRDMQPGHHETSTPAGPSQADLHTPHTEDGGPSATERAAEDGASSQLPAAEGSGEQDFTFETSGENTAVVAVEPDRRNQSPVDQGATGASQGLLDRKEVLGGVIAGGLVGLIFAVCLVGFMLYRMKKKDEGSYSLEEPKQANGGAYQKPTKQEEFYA


Tested on: T1, recombinant syndecan-1

| Protein | in vitro syndecan-1 cleavage assay (coomassie gel); GzmA 500 nM, syndecan-1 0.7 ug | in vitro syndecan-1 cleavage assay (coomassie gel); GzmK 500 nM, syndecan-1 0.7 ug |
| --- | --- | --- |
| recombinant GzmA (enzyme, UniProt P12544 29-262, looked up, species assumed) Granzyme A: IIGGNEVTPHSRPYMVLLSLDRKTICAGALIAKDWVLTAAHCNLNKRSQVILGAHSITREEPTKQIMLVKKEFPYPCYDPATREGDLKLLQLMEKAKINKYVTILHLPKKGDDVKPGTMCQVAGWGRTHNSASWSDTLREVNITIIDRKVCNDRNHYNFNPVIGMNMVCAGSLRGGRDSCNGDSGSPLLCEGVFRGVTSFGLENKCGDPRGPGVYILLSKKHLNWIIMTIKGAV | syndecan-1 was cleaved by all three granzymes |  |
| recombinant GzmK (in vitro syndecan-1 cleavage assay) (enzyme, UniProt P49863 27-264, looked up, species assumed) Granzyme K: IIGGKEVSPHSRPFMASIQYGGHHVCGGVLIDPQWVLTAAHCQYRFTKGQSPTVVLGAHSLSKNEASKQTLEIKKFIPFSRVTSDPQSNDIMLVKLQTAAKLNKHVKMLHIRSKTSLRSGTKCKVTGWGATDPDSLRPSDTLREVTVTVLSRKLCNSQSYYNGDPFITKDMVCAGDAKGQKDSCKGDSGGPLICKGVFHAIVSGGHECGVATKPGIYTLLTKKYQTWIKSNLVPPHTN |  | syndecan-1 was cleaved by all three granzymes |

From patent publication US20220031820
